The values below come from the Human Domainome abundance scans (Beltran et al. 2025).

± gives the uncertainty stated by the source.

B1: Max-interacting protein 1, residues 70 to 120; numbered along this chain, P50539 (parent)
chain: STHNELEKNRRAHLRLCLERLKVLIPLGPDCTRHTTLGLLNKAKAHIKKLE

The variants in this series derive from B1. The series is described as follows: abundance fitness (aPCA) (normalised: wild type 0, dead -1); higher = more abundant; growth selection in yeast, the domain comes from the species named. As to conditions: Homo sapiens.
For the variant STHNELEKNRRAHLRLCLERLKVLIPLGPDCTRHTTLGLCNKAKAHIKKLE [L40C], the abundance fitness is -0.926 ± 0.16. With STHNELEKNRRAHLRLCLERLKVLIPLGPDCTRHTTLGLDNKAKAHIKKLE [L40D], the abundance fitness was -1.13 ± 0.23. With STHNELEKNRRAHLRLCLERLKVLIPLGPDCTRHTTLGLENKAKAHIKKLE [L40E] the figure was -0.857 ± 0.13; with STHNELEKNRRAHLRLCLERLKVLIPLGPDCTRHTTLGLANKAKAHIKKLE [L40A], -0.553 ± 0.11; with STHNELEKNRRAHLRLCLERLKVLIPLGPDCTRHTTLLLLNKAKAHIKKLE [G38L], -0.326 ± 0.1.

For the variant STHNELEKNRRAHLRLCLERLKVLIPLGPDCTRHTTLWLLNKAKAHIKKLE [G38W], the abundance fitness is -0.265 ± 0.092. On to STHNELEKNRRAHLRLCLERLKVLIPLGPDCTRHTTLYLLNKAKAHIKKLE [G38Y], for which the abundance fitness was -0.546 ± 0.18. Consider STHNELEKNRRAHLRLCLERLKVLIPLGPDCTRHTTLSLLNKAKAHIKKLE [G38S], for which the abundance fitness is -0.087 ± 0.089. For STHNELEKNRRAHLRLCLERLKVLIPLGPDCTRHTTLRLLNKAKAHIKKLE [G38R], the abundance fitness is -0.009 ± 0.078. For STHNELEKNRRAHLRLCLERLKVLIPLGPDCTRHTTLKLLNKAKAHIKKLE [G38K], the abundance fitness was found to be 0.081 ± 0.14.

As for STHNELEKNRRAHLRLCLERLKVLIPLGPDCTRHTTLALLNKAKAHIKKLE [G38A], the abundance fitness was -0.055 ± 0.085. Under STHNELEKNRRAHLRLCLERLKVLIPLGPDCTRHTTLFLLNKAKAHIKKLE [G38F] stands -0.584 ± 0.12. Under STHNELEKNRRAHLRLCLERLKVLIPLGPDCTRHTTLHLLNKAKAHIKKLE [G38H] stands -0.168 ± 0.18. With STHNELEKNRRAHLRLCLERLKVLIPLGPDCTRHTTLELLNKAKAHIKKLE [G38E] the figure was -0.185 ± 0.1; with STHNELEKNRRAHLRLCLERLKVLIPLGPDCTRHTTLILLNKAKAHIKKLE [G38I], -0.486 ± 0.22; with STHNELEKNRRAHLRLCLERLKVLIPLGPDCTRHTTLTLLNKAKAHIKKLE [G38T], -0.069 ± 0.1. For STHNELEKNRRAHLRLCLERLKVLIPLGPDCTRHTTLCLLNKAKAHIKKLE [G38C], the abundance fitness was -0.229 ± 0.13. As to STHNELEKNRRAHLRLCLERLKVLIPLGPDCTRHTTLMLLNKAKAHIKKLE [G38M], the abundance fitness was found to be 0.118 ± 0.12. Under STHNELEKNRRAHLRLCLERLKVLIPLGPDCTRHTTLVLLNKAKAHIKKLE [G38V] stands -0.242 ± 0.083.

Turning to STHNELEKNRRAHLRLCLERLKVLIPLGPDCTRSTTLGLLNKAKAHIKKLE [H34S], the abundance fitness worked out at 0.047 ± 0.086. With STHNELEKNRRAHLRLCLERLKVLIPLGPDCTRVTTLGLLNKAKAHIKKLE [H34V] the figure was 0.019 ± 0.094; with STHNELEKNRRAHLRLCLERLKVLIPLGPDCTRDTTLGLLNKAKAHIKKLE [H34D], -0.457 ± 0.12; with STHNELEKNRRAHLRLCLERLKVLIPLGPDCTRTTTLGLLNKAKAHIKKLE [H34T], -0.103 ± 0.11. For STHNELEKNRRAHLRLCLERLKVLIPLGPDCTRRTTLGLLNKAKAHIKKLE [H34R], the abundance fitness turned out to be 0.264 ± 0.074.

For STHNELEKNRRAHLRLCLERLKVLIPLGPDCTRGTTLGLLNKAKAHIKKLE [H34G], the abundance fitness stood at 0.114 ± 0.079. With STHNELEKNRRAHLRLCLERLKVLIPLGPDCTRKTTLGLLNKAKAHIKKLE [H34K] the figure was 0.39 ± 0.12; with STHNELEKNRRAHLRLCLERLKVLIPLGPDCTRCTTLGLLNKAKAHIKKLE [H34C], -0.063 ± 0.099.

For the variant STHNELEKNRRAHLRLCLERLKVLIPLGPDCTRQTTLGLLNKAKAHIKKLE [H34Q], the abundance fitness was -0.028 ± 0.11.

STHNELEKNRRAHLRLCLERLKVLIPLGPDCTRWTTLGLLNKAKAHIKKLE [H34W]: the abundance fitness stood at 0.017 ± 0.091. With STHNELEKNRRAHLRLCLERLKVLIPLGPDCTRYTTLGLLNKAKAHIKKLE [H34Y] the figure was -0.406 ± 0.15; with STHNELEKNRRAHLRLCLERLKVLIPLGPDCTRLTTLGLLNKAKAHIKKLE [H34L], 0.081 ± 0.084; with STHNELEKNRRAHLRLCLERLKVLIPLGPDCTRITTLGLLNKAKAHIKKLE [H34I], -0.225 ± 0.14. With STHNELEKNRRAHLRLCLERLKVLIPLGPDCTRNTTLGLLNKAKAHIKKLE [H34N] the figure was 0.052 ± 0.15; with STHNELEKNRRAHLRLCLERLKVLIPLGPDCTRPTTLGLLNKAKAHIKKLE [H34P], -0.318 ± 0.15; with STHNELEKNRRAHLRLCLERLKVLIPLGPDCTRHFTLGLLNKAKAHIKKLE [T35F], 0.198 ± 0.13.

On to STHNELEKNRRAHLRLCLERLKVLIPLGPDCTRHETLGLLNKAKAHIKKLE [T35E], for which the abundance fitness is -0.508 ± 0.11. With STHNELEKNRRAHLRLCLERLKVLIPLGPDCTRHATLGLLNKAKAHIKKLE [T35A], the abundance fitness amounted to 0.213 ± 0.082. On to STHNELEKNRRAHLRLCLERLKVLIPLGPDCTRHHTLGLLNKAKAHIKKLE [T35H], for which the abundance fitness was -0.023 ± 0.14.

On to STHNELEKNRRAHLRLCLERLKVLIPLGPDCTRHYTLGLLNKAKAHIKKLE [T35Y], for which the abundance fitness came to 0.279 ± 0.15. With STHNELEKNRRAHLRLCLERLKVLIPLGPDCTRHLTLGLLNKAKAHIKKLE [T35L] the figure was -0.017 ± 0.092; with STHNELEKNRRAHLRLCLERLKVLIPLGPDCTRHKTLGLLNKAKAHIKKLE [T35K], 0.218 ± 0.14. With STHNELEKNRRAHLRLCLERLKVLIPLGPDCTRHDTLGLLNKAKAHIKKLE [T35D] the figure was -0.377 ± 0.14. On to STHNELEKNRRAHLRLCLERLKVLIPLGPDCTRHQTLGLLNKAKAHIKKLE [T35Q], for which the abundance fitness was -0.176 ± 0.12. With STHNELEKNRRAHLRLCLERLKVLIPLGPDCTRHGTLGLLNKAKAHIKKLE [T35G] the figure was -0.031 ± 0.075. With STHNELEKNRRAHLRLCLERLKVLIPLGPDCTRHWTLGLLNKAKAHIKKLE [T35W] the figure was 0.189 ± 0.097; with STHNELEKNRRAHLRLCLERLKVLIPLGPDCTRHPTLGLLNKAKAHIKKLE [T35P], -0.103 ± 0.1; with STHNELEKNRRAHLRLCLERLKVLIPLGPDCTRHRTLGLLNKAKAHIKKLE [T35R], 0.225 ± 0.075. Turning to STHNELEKNRRAHLRLCLERLKVLIPLGPDCTRHCTLGLLNKAKAHIKKLE [T35C], the abundance fitness was 0.019 ± 0.098. Consider STHNELEKNRRAHLRLCLERLKVLIPLGPDCTRHVTLGLLNKAKAHIKKLE [T35V], for which the abundance fitness was determined as 0.057 ± 0.086. With STHNELEKNRRAHLRLCLERLKVLIPLGPDCTRHSTLGLLNKAKAHIKKLE [T35S] the figure was 0.025 ± 0.089; with STHNELEKNRRAHLRLCLERLKVLIPLGPDCTRHTTTGLLNKAKAHIKKLE [L37T], 0.042 ± 0.13.
